Target: NtMYC2aΔN (C-terminal bHLH domain) (Nicotiana tabacum)
Assay: EMSA; 10 mM Tris, 50 mM KCl, 1 mM DTT, poly(dI-dC), room temperature; 500x cold probe reduced the signal
Conditions: tags: GST fusion, cleaved with thrombin; label: 3' biotin
Protocol: EMSA was performed according to manual of the kit (LightShift,) Chemiluminescent EMSA Kit, Pierce). The binding buffer was 10 mM Tris, 50 mM KCl, 1 mM DTT, 0.05 μg/μl poly(di-dc), 0.05% NP-40, and 2.5% (v/v) glycerol. The probe was 20 fmol for each reaction. The cold probe and mutated probe were 10 pmol (500×) and the protein was 0.75 μg MYC2aΔN. The binding reaction was performed at room temperature for 20 min. The reaction mixture was separated on a 5% polyacrylamide gel and blotted on Hybond™-N⁺ membrane (Amersham, Piscataway, N.J., USA). UV crosslinker was used to crosslink the DNA to membrane. The membrane was probed and signal was detected according to the manual of kit (Chemiluminescent Nucleic Acid Detection Module Kit, Pierce). Kodak BioMax MS film (Carestream Health, Inc. Rochester, N.Y.) was exposed to record the signal.
Three G-boxes (G2, G3 and G4) were identified in the 0.6 kb NtQPT2 promoter (NCBI accession No. AJ748263), among which G2 box has the highest binding strength with NtMYC2b (Shoji and Hashimoto, 2011). To validate that NtMYC2a binds to G2-box. EMSA experiment was performed with probes of 38 bp consisting of a G2 box (CACGTT) and flanking regions from the NtQPT2 promoter and mutated probe with mutation in the G2 box sequence. We cloned the full length of NtMYC2a and expressed the recombinant protein (NtMYC2a fused with GST) in E. coli. […]

NtMYC2aΔN (C-terminal bHLH domain) (Nicotiana tabacum), sequence (chain, as listed by the source mutant): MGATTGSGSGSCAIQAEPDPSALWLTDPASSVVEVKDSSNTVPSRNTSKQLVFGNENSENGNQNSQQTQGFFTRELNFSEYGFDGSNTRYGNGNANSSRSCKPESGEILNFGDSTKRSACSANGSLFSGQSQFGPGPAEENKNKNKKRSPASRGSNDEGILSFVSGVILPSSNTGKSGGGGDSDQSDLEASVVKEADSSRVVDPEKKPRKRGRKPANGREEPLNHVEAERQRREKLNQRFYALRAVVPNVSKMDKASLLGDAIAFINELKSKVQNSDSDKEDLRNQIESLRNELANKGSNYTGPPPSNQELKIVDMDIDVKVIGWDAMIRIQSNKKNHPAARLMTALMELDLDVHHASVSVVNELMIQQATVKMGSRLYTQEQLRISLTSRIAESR

B1: G2-box probe of NtQPT2 promoter (dsDNA)
DNA 1: AGTAGCTGAACACGTTTTATTTATGGTTGTTGAATAGT
DNA 2: ACTATTCAACAACCATAAATAAAACGTGTTCAGCTACT
binding result: binds

Source: patent US20180362994, “TRANSCRIPTION FACTORS THAT REGULATE NICOTINE BIOSYNTHESIS IN TOBACCO” (NORTH CAROLINA STATE UNIVERSITY, published 2018)
